Measured values taken from US6861578B1, “Method for plant protection against insects or nematodes by transformation with a nucleic acid encoding equistatin” (Plant Research International B.V., priority 1997, dated 2005).

Experiments:
[1] = test system: amino-peptidase activity of Colorado potato beetle larval gut extracts; experiment: Amino-peptidase activity of Colorado potato beetle gut extract, L-Arg-pNA; type: biochemical, Leptinotarsa decemlineata
Text: Guts of final instar Colorado potato beetle larvae reared on methyl jasmonate induced plants were isolated and extracted essentially as described (Bolter and Jongsma, J. Insect Physiol. 41: 1071-1078). In these gut extracts the proteases that are sensitive to the protease inhibitors of potato are already complexed. The residual protease activity is composed of potato protease-inhibitor-insensitive proteases which were induced in response to the methyl jasmonate induced potato inhibitors. These proteases are the proteases that render the beetle larvae insensitive to protease inhibitor defense of the potato plant. Wle tested a broad range of different cysteisie protease inhibitors for activity specifically against these induced potato protease inhibitor-insensitive cysteine protesses. Nearly all of these inhibitors were purified at the Jozef Stefan Institute in Slovenia. Testing their potential against Colorado potato beetle was done using both general protein substrates (azocasein, table 2) as well as specific synthetic substrates (L-Arg-pNA, table 3; pGlu-Phe-Leu-pNA, table 4; Z-Phe-Arg-pNA, table 5; Z-Arg-Arg-pNA, table 6). In specific cases inhibitors were tested at two concentrations, eauimolar and in excess to the protease, in order to obtain an indication of the tightness of the complex. […] Importantly, this class of inhibitors was capable of inhibiting nearly all general cysteine protease activity. The equistatin peptide molecule and a functional derivative thereof were not very active against the aminopeptidase-like cysteine protease activity. […] The best combination of inhibitors for full toxicity against the Colorado potato beetle would therefore be a combination of equistatin or p41 invariant chain fragment and stefin-like inhibitors.

[2] = target: T1, papain (Carica papaya, UniProt P00784); experiment: Stoichiometry and inhibition constant of recombinant equistatin with papain (Z-Phe-Arg-pNA, microtiterplate); type: biochemical
T1 sequence (P00784 134-345): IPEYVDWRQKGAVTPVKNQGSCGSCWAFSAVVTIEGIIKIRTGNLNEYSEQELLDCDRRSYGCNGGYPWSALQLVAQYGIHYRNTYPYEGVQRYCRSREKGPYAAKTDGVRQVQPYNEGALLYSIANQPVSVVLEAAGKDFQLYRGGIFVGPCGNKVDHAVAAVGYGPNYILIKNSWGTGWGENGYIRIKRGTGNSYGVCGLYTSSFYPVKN
Protocol: In a microtiterplate 20 μl papain solution (a fresh solution of 1 mg/ml (Sigma) in MES buffer titrated with E-64 to determine the active fraction, usually 17%) is combined with 0-80 μl of known protein concentration. MES buffer (50 mM MES, pH 6.5; 0.6 mg/ml L-cysteine; 1 mg/ml BSA fraction V) is added to a final volume of 150 μl. The mixture is incubated for 30 min at room temperature and subsequently 50 μl of substrate solution (60 μl of 15 mg/ml Z-Phe-Arg-pNA dissolved in methanol is diluted in 940 μl MES buffer before use). The plate is immediately placed in the nicrotiterplate reader and measured at 405 nm. Readings up to an OD600 of 0.3 are linear. Rates of change are used to determine the activity with increasing amounts of inhibitor. Results are graphically represented and at stoichiometric concentrations the amount of dissociated complex is determined to determine the apparent equilibrium dissociation constant (Ki). […] The apparent equilibrium dissociation constant for papain was estimated to be 0.6 nM in agreement with the data published for the purified protein (Lenarcic et al. (1997) J. Biol. Chem. 272: 13899-13903.

B1: equistatin: cysteine/aspartic protease inhibitor from sea anemone Actinia equina with three type I repeated thyroglobulin domains; purified or recombinant from E. coli (protein)
chain: SLTKCQQLQASANSGLIGTYVPQCKETGEFEEKQCWGSTGYCWCVDEDGKEILGTKIRGSPDCSRRKAALTLCQMMQAIIVNVPGWCGPPSCKADGSFDEVQCCASNGECYCVDKKGKELEGTRQQGRPTCERHLSECEEARIKAHSNSLRVEMFVPECLEDGSYNPVQCWPSTGYCWCVDEGGVKVPGSDVRFKRPTC
modifications: left off: large carriers; small tags and cut ends
notes: purified or recombinant from E. coli
% of residual activity, equimolar ([1]; equimolar): 85% | % of residual activity, excess inhibitor ([1]; excess inhibitor): 75% | molecules of papain inhibited by one molecule of equistatin [2]: approximately 1 molecule
